Experimental findings from patent US7427498B2, “Composition, methods and reagents for the synthesis of a soluble form of human PHEX” (Universite De Montreal, priority 1999, dated 2008) are described below.

The test system of data set [1] is secPHEX. Nature of the data set: Inhibition of secPHEX enzymatic activity (cleavage of PTHrP107-139, RP-HPLC). In kind it is biochemical, human. The following applies: 0.001 M inhibitor added to the reaction mixture. How it is done:
(§1) FIG. 6: Enzymatic assay for secPHEX. Purified secPHEX (2 μg) was incubated in the presence of 10 μg PTHrP107-139 and the reaction mixture analyzed by RP-HPLC.
(§2) An aliquot of purified PHEX containing 2 μg of protein was incubated for 15 min at 37° C. in a volume of 200 μl of 50 mM MES (2-(N-Morpholinoethanesulfonic acid, pH 6.5, containing 150 mM NaCl and 10 μg of PTHrP107-139 as a substrate. After the incubation period, the hydrolysis was stopped by the addition of trifluoroacetic acid to a final concentration of 0.1%. Identification of peptide products was performed by reverse phase high performance liquid chromatography (RP-HPLC) on a C18 μBondapak analytical column (Waters) with a UV detector set at 214 nm. Peptides were resolved with a linear gradient of 5% B to 85% B in 45 min at the flow rate of 0.4 ml/min [mobile phase A=0.1% trifluoroacetic acid; mobile phase B=80% acetonitrile (CH3CN), 0.1% trifluoroacetic acid].

The subject of data set [2] is PTHrP107-139. Nature of the data set: Assay for the activity of PHEX: digestion of PTHrP107-139 by purified secPHEX, RP-HPLC. It is filed as biochemical. How it is done:
as §1, §2

The target in data set [3] is T1, PTHrP107-139, P12272.
T1 chain: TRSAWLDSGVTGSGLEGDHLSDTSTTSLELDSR

Entries after “also recorded” stand apart in the source; their conditions may differ.

`O=C(O)CN(CCN(CC(=O)O)CC(=O)O)CC(=O)O` [EDTA]: the “inhibition of secPHEX enzymatic activity (degradation of PTHrP107-139)” value in data set [1] was “totally inhibited; also recorded: fully inhibited”.

As to `c1cnc2c(c1)ccc1cccnc12` [O-phenantrolin], the “inhibition of secPHEX enzymatic activity (degradation of PTHrP107-139)” value in data set [1] is “fully inhibited”.

B1: secPHEX, soluble secreted form of recombinant human PHEX (construct 3, pCDNA3/RSV/PHEX-MutE) (protein)
chain: MEAETGSSVETGKKANRGTRIALVVFVLTVIAQQTTSQGLLSLQAKQEYCLKPECIEAAAAILSKVNLSVDPCDNFFRFACDGWISNNPIPEDMPSYGVYPWLRHNVDLKLKELLEKSISRRRDTEAIQKAKILYSSCMNEKAIEKADAKPLLHILRHSPFRWPVLESNIGPEGVWSERKFSLLQTLATFRGQYSNSVFIRLYVSPDDKASNEHILKLDQATLSLAVREDYLDNSTEAKSYRDALYKFMVDTAVLLGANSSRAEHDMKSVLRLEIKIAEIMIPHENRTSEAMYNKMNISELSAMIPQFDWLGYIKKVIDTRLYPHLKDISPSENVVVRVPQYFKDLFRILGSERKKTIANYLVWRMVYSRIPNLSRRFQYRWLEFSRVIQGTTTLLPQWDKCVNFIESALPYVVGKMFVDVYFQEDKKEMMEELVEGVRWAFIDMLEKENEWMDAGTKRKAKEKARAVLAKVGYPEFIMNDTHVNEDLKAIKFSEADYFGNVLQTRKYLAQSDFFWLRKAVPKTEWFTNPTTVNAFYSASTNQIRFPAGELQKPFFWGTEYPRSLSYGAIGVIVGHEFTHGFDNNGRKYDKNGNLDPWWSTESEEKFKEKTKCMINQYSNYYWKKAGLNVKGKRTLGENIADNGGLREAFRAYRKWINDRRQGLEEPLLPGITFTNNQLFFLSYAHVRCNSYRPEAAREQVQIGAHSPPQFRVNGAISNSEEFQKAFNCPPNSTMNRGMDSCRLW
As to B1, the “PTHrP107-139 peak on the chromatogram, % of its original surface” value in data set [2] (2 μg secPHEX, 10 μg PTHrP107-139, 15 min at 37° C., 50 mM MES pH 6.5, 150 mM NaCl) worked out at 15%. In data set [2] (Acetate, HEPES and Tris buffers covering a pH range from 4.0 to 8.5), the “enzymatic activity in other buffers” value is on record as “Activity was also observed”. In data set [2] (purified secPHEX, conditions of Methods), the “enzymatic activity on PTHrP107-139 (qualitative)” value is on record as “active; also recorded: can degrade this peptide”. In addition, the “PTHrP107-139 peak on the chromatogram (RP-HPLC) after 15 min of incubation” value in data set [3] is given as “PTHrP107-139 peak on the chromatogram was decreased to 15% of its original surface after only 15 min of incubation”.
